From publication PMC7946950 come the findings set out here.

Assay [1] concerns the target Coagulation Factor XIa (human) (UniProt P03951). The experiment in a line: stoichiometry of inhibition (SI) titration, residual FXIa activity; varying ratios of AAT variant to FXIa incubated at ambient temperature for 2 h; residual FXIa activity determined at 37 °C; regression to zero activity.
Assay [2] deals with thrombin (human). The experiment in a line: kinetics of protease inhibition (second order rate constant k2, discontinuous method, residual protease activity); protease 5-75 nM, at least 10:1 molar ratio of AAT variant to protease (pseudo-first order), 37 °C, PPNE buffer (20 mM sodium phosphate pH 7.4, 100 mM NaCl, 0.1 mM EDTA, 0.1% polyethylene glycol 8000).
In assay [3] the target is Coagulation Factor XIa (human) (UniProt P03951). Described as above.
Assay [4] concerns the target Activated Protein C (human). The assay is described as above.
Another assay deals with kallikrein (human). The assay is described as above.
For assay [5], the target named is Coagulation Factor XIa (human) (UniProt P03951). The assay is described as above. This is another data set of the same source.
The target of another assay is Factor Xa (human). The assay is described as above.
The target in another assay is Factor XIIa (human). The assay is described as above.
Assay [6] deals with thrombin (human). The assay is described as above. The source holds these as a separate data set.
Assay [7] concerns the target Coagulation Factor XIa (human) (UniProt P03951). Described as above. The source holds these as a separate data set.

Where two headings read alike, the source gives them in different places.

“AAT M358R (alpha-1 antitrypsin M358R), cleavable GST fusion system (natural protein)”: the stoichiometry of inhibition (SI) in assay [1] came out at 2.1. Besides, the k2 (second order rate constant of inhibition) is 210000 M⁻¹ s⁻¹ with thrombin (human) [2]; 160000 M⁻¹ s⁻¹ in assay [3]; 40000 M⁻¹ s⁻¹ in assay [4]; 40000 M⁻¹ s⁻¹ with kallikrein (human); 170000 M⁻¹ s⁻¹ in [5]; 35000 M⁻¹ s⁻¹ with Factor Xa (human). For the same sequence, the k2 (second order rate constant of inhibition) in the assay with Factor XIIa (human) came to 23000 M⁻¹ s⁻¹.

Take “AAT M358R (alpha-1 antitrypsin M358R), arabinose-inducible system (natural protein)”: the results for the k2 (second order rate constant of inhibition) (with thrombin (human) [6]; in [7]; in assay [5]) were 160000 M⁻¹ s⁻¹, 190000 M⁻¹ s⁻¹ and 180000 M⁻¹ s⁻¹, respectively.

Take “AAT M358R/QSIIS, arabinose-inducible system (designed binder)”: in the assay with thrombin (human) [6], the k2 (second order rate constant of inhibition) was found to be 100000 M⁻¹ s⁻¹.

Take “AAT M358R/PRSLD, from the pBAD P2'/P3' bacterial expression library (designed binder)”: the k2 (second order rate constant of inhibition) in [5] stood at 38000.

On to “AAT M358R/PRSTE, cleavable GST fusion system (designed binder)”, for which the stoichiometry of inhibition (SI) in assay [1] amounted to 3.3. For the same sequence, the k2 (second order rate constant of inhibition) with thrombin (human) [2] stood at 1200 M⁻¹ s⁻¹; in assay [3], 41000 M⁻¹ s⁻¹.

“AAT M358R/PRSTE, from the pBAD P2'/P3' bacterial expression library (designed binder)”: the k2 (second order rate constant of inhibition) in assay [5] stood at 45000.

For “AAT M358R/HASTGQ, cleavable GST fusion system (designed binder)”, the stoichiometry of inhibition (SI) in assay [1] was 12.7. Moreover, the k2 (second order rate constant of inhibition) in assay [3] was 34000 M⁻¹ s⁻¹.
